Data on three molecules can be found in patent publication US20220331394A1 (SUSAVION BIOSCIENCES, published 2022).

For assay [1], the target named is T1, Siglec-1 (human, UniProt Q9BZZ2 20-1641, limits assumed).
T1 construct: construct not described
Kind of assay: solid-phase binding assay with recombinant receptor. The protocol:
(§1) Binding Assays Solid-phase binding assays were performed with streptavidin-, protein A/G-, or Nickel-coated microtiter plates (Pierce). His-tagged or Fc-fusion recombinant receptors (R&D Systems, Minneapolis, Minn.) were reconstituted in PBS. Sufficient receptors were added to wells to saturate the coating. His-tagged receptors were added to each well at a 5-fold excess over the stated capacity of the Ni coating to minimize non-specific binding of the peptide. Wells were washed three times with binding buffer (25 mM Tris HCl, pH 7.4, 150 mM NaCl, 0.05% Tween-20) to remove unbound receptor and 50 μL of 2 μM biotinylated peptide in binding buffer were added and allowed to incubate for 1 h. The wells were washed four times with binding buffer and then incubated with 50 μL of 1 μg/mL streptavidin conjugated with peroxidase (Sigma-Aldrich) for 1 h. The wells were washed five times with binding buffer and 50 μL of peroxidase substrate (1-Step™ Ultra TMB, Pierce) were added. After several minutes to allow color development, the reaction was stopped with 50 μL 1 M H₃PO₄ and absorbance was measured at 450 nm. Bound streptavidin was quantitated by the specific activity of peroxidase (absorbance/ng protein conjugate/min) under the conditions of the assay.
(§2) Solid-phase binding assays were performed with recombinant human receptors. Three variations of the binding assay were used in this study, all of which allowed the arms of the tetravalent peptide to have full flexibility. (i) Biotinylated peptide was bound in microtiter wells coated with streptavidin and incubated with recombinant human receptors. After extensive washing, the bound receptor was measured by peroxidase conjugated to a receptor-specific antibody. (ii) The extracellular domains of receptors, which were fused with the Fc domain of immunoglobulin IgG, were bound in wells coated with protein A/G. Biotinylated peptide was incubated with the receptors and, after extensive washing, bound peptide was measured with streptavidin conjugated with peroxidase. Or (iii), recombinant receptors with a poly-His tag were bound to Nickel-coated wells and incubated with biotinylated peptide. svL4 and sv6D contain His residues (FIGS. 1A, 1C) and can bind to the Ni coating, which was minimized by adding sufficient poly-His-tagged receptor to saturate the Ni coating.

The target of assay [2] is T2, CD44 (human, UniProt P16070 21-220, limits assumed).
T2 construct: construct not described; also called receptor for hyaluronic acid
The assay is described as above. The protocol:
as §1, §2

Assay [3] addresses T3, IL-4R (human, UniProt P24394 26-232, limits assumed).
T3 construct: construct not described; also called receptor for IL-4
T3 sequence (looked up): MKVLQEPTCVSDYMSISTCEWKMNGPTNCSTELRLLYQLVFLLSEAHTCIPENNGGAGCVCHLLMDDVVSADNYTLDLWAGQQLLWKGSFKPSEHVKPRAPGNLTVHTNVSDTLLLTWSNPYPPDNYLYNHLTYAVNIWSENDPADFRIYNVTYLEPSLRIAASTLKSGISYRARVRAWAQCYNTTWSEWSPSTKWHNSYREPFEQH
The description is as above. As to the method:
as §1, §2

Assay [4] concerns the target T4, CLEC9A (human, UniProt Q6UXN8 57-241).
T4 construct: construct not described
Described as above. As to the method:
as §1, §2

Assay [5] addresses T5, DC-SIGN (human, UniProt Q9NNX6 62-404, limits assumed).
T5 construct: construct not described; also called CD209; dendritic cell-specific intercellular adhesion molecule (ICAM)-3 grabbing non-integrin
T5 sequence (looked up): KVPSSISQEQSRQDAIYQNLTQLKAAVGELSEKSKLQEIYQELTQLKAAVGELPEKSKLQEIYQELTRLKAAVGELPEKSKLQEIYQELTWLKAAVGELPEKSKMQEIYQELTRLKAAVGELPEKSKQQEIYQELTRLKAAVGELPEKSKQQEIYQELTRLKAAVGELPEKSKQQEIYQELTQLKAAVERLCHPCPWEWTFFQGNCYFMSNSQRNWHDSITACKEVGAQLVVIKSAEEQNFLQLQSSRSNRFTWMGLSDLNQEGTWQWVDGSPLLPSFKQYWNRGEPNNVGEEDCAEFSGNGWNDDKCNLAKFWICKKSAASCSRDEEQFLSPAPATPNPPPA
Described as above. The protocol: as §1, §2

Assay [6] concerns the target T6, recombinant rat CLEC10A (rat, UniProt P49301 59-306, limits assumed).
T6 construct: construct not described; also called CLEC10A from rat
T6 sequence (looked up): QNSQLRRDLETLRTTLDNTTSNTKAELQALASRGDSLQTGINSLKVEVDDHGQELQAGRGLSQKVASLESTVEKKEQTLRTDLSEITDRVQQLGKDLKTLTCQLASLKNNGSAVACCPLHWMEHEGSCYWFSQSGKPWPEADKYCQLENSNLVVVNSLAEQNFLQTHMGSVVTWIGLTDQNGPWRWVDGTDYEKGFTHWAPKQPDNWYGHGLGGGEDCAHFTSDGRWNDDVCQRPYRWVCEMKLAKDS
Kind of assay: solid-phase competition with biotinylated GalNAc-PAA. The protocol: FIGS. 3A-3D. sv6D as a mimetic of GalNAc. (FIG. 3A) Inhibition by sv6D of binding of multivalent GalNAc-PAA (GlycoTech Corp., Frederick, Md.) to recombinant rat CLEC10A and human ASGPR-1. The reaction mixture included approximately 200 pmoles of biotinylated GalNc-PAA and increasing concentrations of peptide. The figure includes average values from 3 independent experiments. (FIG. 3B) Biotinylated sv6D or GalNAc-PAA were incubated with rabbit antiserum raised against the 6D sequence (NQHTPR) conjugated to keyhole limpet hemocyanin (KLH). Binding was detected with streptavidin-peroxidase conjugate. Similar data were obtained in 2 experiments. (FIG. 3C) Inhibition by EGTA of binding of sv6D (pattern) or svL4 (solid) to CLEC10A and ASGPR-1, respectively. EGTA (1 mM) was added to the final concentrations indicated to assays. Retention of bound CLEC10A was determined by incubation with biotinylated anti-CLEC10A (goat IgG, R&D Systems) and detection with streptavidin-peroxidase conjugate (light grey circle). Similar data were obtained in 3 experiments. (FIG. 3D) Binding of svL4 and sv6D to human recombinant CLEC10A and ASGPR-1 as a function of concentration of peptide in the assay. The figure is representative of 4 separate assays.
To further determine whether sv6D interacts with the actual sugar binding site, the ability of sv6D to compete with GalNAc-PAA for binding was assayed. […]

Assay [7] has as its target T7, recombinant human Ca2+-dependent lectin-type receptor family member 10A (CLEC10A) (human, UniProt Q8IUN9 61-316).
T7 construct: extracellular domain; Bought recombinant receptor; also called CD301; macrophage galactose-type lectin
T7 sequence (looked up): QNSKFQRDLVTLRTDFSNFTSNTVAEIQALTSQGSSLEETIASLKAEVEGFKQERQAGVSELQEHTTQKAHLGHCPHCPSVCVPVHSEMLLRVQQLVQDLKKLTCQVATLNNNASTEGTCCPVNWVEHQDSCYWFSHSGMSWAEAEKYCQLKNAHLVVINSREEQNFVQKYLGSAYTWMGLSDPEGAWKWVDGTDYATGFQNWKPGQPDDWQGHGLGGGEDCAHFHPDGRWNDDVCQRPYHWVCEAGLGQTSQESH
Kind of assay: solid-phase binding assay, double-reciprocal plot of binding vs. peptide concentration. As to the method: (§3) Binding was detected with streptavidin-peroxidase conjugate. Similar data were obtained in 2 experiments. (FIG. 3C) Inhibition by EGTA of binding of sv6D (pattern) or svL4 (solid) to CLEC10A and ASGPR-1, respectively. EGTA (1 mM) was added to the final concentrations indicated to assays. Retention of bound CLEC10A was determined by incubation with biotinylated anti-CLEC10A (goat IgG, R&D Systems) and detection with streptavidin-peroxidase conjugate (light grey circle). Similar data were obtained in 3 experiments. (FIG. 3D) Binding of svL4 and sv6D to human recombinant CLEC10A and ASGPR-1 as a function of concentration of peptide in the assay. The figure is representative of 4 separate assays.
as §1
(§4) Corresponding values for binding of svL4 to CLEC10A and ASGPR-1 of 0.24±0.04 μM and 0.21±0.03 μM, respectively, were obtained (FIG. 3D).

Assay [8] has as its target T8, recombinant human asialoglycoprotein receptor 1 (ASGPR-1) (human, UniProt P07306 62-291).
T8 construct: extracellular domain; Bought recombinant receptor; also called Ashwell-Morell receptor; CLEC4H1
T8 sequence (looked up): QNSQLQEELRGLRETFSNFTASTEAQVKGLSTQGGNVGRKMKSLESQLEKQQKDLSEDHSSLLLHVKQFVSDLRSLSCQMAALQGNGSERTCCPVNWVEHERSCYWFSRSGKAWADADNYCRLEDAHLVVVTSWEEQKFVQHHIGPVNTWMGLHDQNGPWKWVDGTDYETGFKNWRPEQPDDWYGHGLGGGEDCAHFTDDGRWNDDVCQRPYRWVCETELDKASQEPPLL
Described as above. As to the method: as §3, §1, §4

Assay [9] addresses T7, recombinant human Ca2+-dependent …. The experiment in a line: solid-phase binding assay with recombinant human receptor. As to the method:
as §1, with “The wells were washed five times with binding buffer and 50 μL of peroxidase substrate (1-Step™ Ultra TMB, Pierce) were added.” left out
(§5) Solid-phase binding assays were performed with recombinant human receptors. […] After extensive washing, the bound receptor was measured by peroxidase conjugated to a receptor-specific antibody. […]

Assay [10] concerns the target T8, recombinant human asialoglycoprotein …. The assay is described as above. The protocol:
as §1, with “The wells were washed five times with binding buffer and 50 μL of peroxidase substrate (1-Step™ Ultra TMB, Pierce) were added.” left out
as §5

No end group written: not given here.

T1 sequence (Q9BZZ2 20-1641 limits assumed): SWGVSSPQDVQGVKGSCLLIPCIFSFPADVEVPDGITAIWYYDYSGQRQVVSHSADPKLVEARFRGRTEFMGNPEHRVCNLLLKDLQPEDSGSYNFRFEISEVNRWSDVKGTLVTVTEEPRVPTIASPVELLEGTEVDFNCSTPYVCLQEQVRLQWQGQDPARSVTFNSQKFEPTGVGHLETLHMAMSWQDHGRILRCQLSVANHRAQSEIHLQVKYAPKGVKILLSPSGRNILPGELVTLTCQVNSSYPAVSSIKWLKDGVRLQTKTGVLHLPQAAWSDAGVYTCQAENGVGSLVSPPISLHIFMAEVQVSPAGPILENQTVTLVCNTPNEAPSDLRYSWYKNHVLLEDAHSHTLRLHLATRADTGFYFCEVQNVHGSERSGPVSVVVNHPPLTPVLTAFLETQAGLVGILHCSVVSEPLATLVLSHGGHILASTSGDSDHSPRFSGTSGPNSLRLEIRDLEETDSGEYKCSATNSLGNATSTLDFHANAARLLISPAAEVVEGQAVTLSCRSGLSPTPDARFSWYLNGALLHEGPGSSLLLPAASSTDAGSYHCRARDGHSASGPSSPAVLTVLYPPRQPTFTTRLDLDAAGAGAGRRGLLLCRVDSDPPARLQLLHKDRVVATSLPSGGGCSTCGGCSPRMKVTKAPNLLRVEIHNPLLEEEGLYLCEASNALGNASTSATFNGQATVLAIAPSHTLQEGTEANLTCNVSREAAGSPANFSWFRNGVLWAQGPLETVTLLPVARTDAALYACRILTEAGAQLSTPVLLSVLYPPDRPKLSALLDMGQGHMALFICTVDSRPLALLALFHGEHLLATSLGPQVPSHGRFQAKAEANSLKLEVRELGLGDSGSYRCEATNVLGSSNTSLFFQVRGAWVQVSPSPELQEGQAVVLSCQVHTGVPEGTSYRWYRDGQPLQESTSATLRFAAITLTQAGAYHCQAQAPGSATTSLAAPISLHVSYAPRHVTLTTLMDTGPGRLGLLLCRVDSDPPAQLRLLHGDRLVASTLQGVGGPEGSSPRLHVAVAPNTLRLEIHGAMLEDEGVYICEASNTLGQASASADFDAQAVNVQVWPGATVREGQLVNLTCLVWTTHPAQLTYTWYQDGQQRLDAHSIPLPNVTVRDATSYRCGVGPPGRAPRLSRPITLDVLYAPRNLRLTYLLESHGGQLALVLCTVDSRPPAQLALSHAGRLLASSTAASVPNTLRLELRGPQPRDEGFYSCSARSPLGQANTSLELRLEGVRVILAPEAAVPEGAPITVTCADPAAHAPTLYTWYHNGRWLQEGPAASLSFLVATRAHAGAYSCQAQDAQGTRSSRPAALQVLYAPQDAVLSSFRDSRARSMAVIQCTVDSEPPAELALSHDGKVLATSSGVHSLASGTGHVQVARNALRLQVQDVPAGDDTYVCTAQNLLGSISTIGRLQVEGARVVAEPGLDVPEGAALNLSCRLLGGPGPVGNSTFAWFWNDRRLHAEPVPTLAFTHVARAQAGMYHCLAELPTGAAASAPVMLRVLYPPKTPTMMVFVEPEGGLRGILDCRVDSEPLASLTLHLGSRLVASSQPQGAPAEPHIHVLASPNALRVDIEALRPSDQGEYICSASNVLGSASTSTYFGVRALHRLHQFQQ
T4 sequence (Q6UXN8 57-241 limits assumed): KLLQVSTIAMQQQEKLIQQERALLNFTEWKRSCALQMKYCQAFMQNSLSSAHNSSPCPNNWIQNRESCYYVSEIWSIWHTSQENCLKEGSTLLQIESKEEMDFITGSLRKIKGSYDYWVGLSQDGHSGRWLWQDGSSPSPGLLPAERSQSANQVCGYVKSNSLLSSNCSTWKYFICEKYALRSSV
T2 sequence (P16070 21-220 limits assumed): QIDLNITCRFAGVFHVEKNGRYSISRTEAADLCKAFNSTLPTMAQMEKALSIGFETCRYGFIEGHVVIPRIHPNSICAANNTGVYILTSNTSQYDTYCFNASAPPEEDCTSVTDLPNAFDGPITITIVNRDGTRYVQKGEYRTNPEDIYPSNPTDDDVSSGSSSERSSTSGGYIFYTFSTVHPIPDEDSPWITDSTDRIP

B1: sv6D (peptide)
peptide: NQHTPRGGGS
modifications: also: tetravalent: four arms joined through GGGS linker to branched tri-lysine core, core C-terminus amide or biotinyl-lysinyl-amide
notes: Tetravalent branched construct: four arms NQHTPR + GGGS linker on a tri-lysine core; Biotinylated in solid-phase assays; also called tetravalent peptide sv6D; C-terminal half of svL4
As to B1, the binding result is on record as “no binding (tested: 2 µM biotinylated peptide)” in assay [1]; “no binding (tested: 2 µM biotinylated peptide)” in assay [2]; “no binding (tested: 2 µM biotinylated peptide)” in assay [3]; “no binding (tested: 2 µM biotinylated peptide)” in assay [4]; “no binding (tested: 2 µM biotinylated peptide)” in [5]; “binds” in assay [6]. Moreover, the values for the Kd in assay [7] and in [8] were 0.15 µM and 0.12 µM, respectively.

B2: svL4 (peptide)
peptide: VQATQSNQHTPRGGGS
modifications: also: tetravalent: four arms joined through GGGS linker to branched tri-lysine core, core C-terminus amide or biotinyl-lysinyl-amide
notes: the tie follows from svL4 being the 12-mer whose C-terminal 6-mer is sv6D (NQHTPR); also called tetravalent peptide svL4; full-length svL4
With B2, the binding result in assay [1], in assay [2], in assay [3], in assay [4] and in assay [5] was “no binding (tested: 2 µM biotinylated peptide)” throughout. For the same molecule, the values for the Kd in [7] and in assay [8] were 0.24 µM and 0.21 µM, respectively.

B3: svC1 (peptide)
peptide: VQATQSGGGS
modifications: also: arms on branched tri-lysine core as for svL4, biotinylated at C-terminus of core in binding assays
notes: also called N-terminal half of svL4
In the case of B3, the binding result in [9] and in assay [10] was “no binding (tested: 2 µM biotinylated peptide)” throughout.
